This note sets out measurements from the supplement of paper PMC9112550, “Optimization of the antimicrobial peptide Bac7 by deep mutational scanning” (BMC Biology, 2022).

The data set relates to Escherichia coli TOP10. The data set can be described thus: shrunken log2 fold change of peptide-encoding DNA abundance (4.5 h post-induction vs induction); higher = less antimicrobial activity (less host growth inhibition). The settings on record: time post-induction: 4.5 h; library: site-saturation at positions 5, 18, 19, 20.
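Note: peptides expressed intracellularly from a pBAD plasmid library in pooled LB shake-flask culture, induced with 0.3% L-arabinose, DNA abundance read by NGS, three biological replicates, DESeq2 with apeglm shrinkage.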

In the case of RRIRERPPRLPRPRPRPEGDPRP, the “shrunken log2 fold change” value was found to be 0.0441.

As to RRIRDRPPRLPRPRPRPLVFPRP, the “shrunken log2 fold change” value is -0.0186.

For the sequence RRIRFRPPRLPRPRPRPTLWPRP, the “shrunken log2 fold change” value worked out at 0.275.

As for RRIRHRPPRLPRPRPRPVKPPRP, the “shrunken log2 fold change” value is 0.0296.

For RRIRQRPPRLPRPRPRPRYRPRP, the “shrunken log2 fold change” value was -0.419.

As to RRIRARPPRLPRPRPRPTDQPRP, the “shrunken log2 fold change” value is 0.918.

Take RRIRFRPPRLPRPRPRPPYQPRP: the “shrunken log2 fold change” value was -0.125.

Consider RRIRFRPPRLPRPRPRPARNPRP, for which the “shrunken log2 fold change” value amounted to 0.0979.

In the case of RRIRTRPPRLPRPRPRPLPMPRP, the “shrunken log2 fold change” value was -0.0573.

With RRIRARPPRLPRPRPRPTKYPRP, the “shrunken log2 fold change” value is -0.114.

RRIRIRPPRLPRPRPRPVGVPRP: the “shrunken log2 fold change” value was -0.157.

As to RRIRVRPPRLPRPRPRPYHWPRP, the “shrunken log2 fold change” value is -0.633.

Consider RRIRQRPPRLPRPRPRPDEHPRP, for which the “shrunken log2 fold change” value amounted to 2.14.

On to RRIRGRPPRLPRPRPRPEATPRP, for which the “shrunken log2 fold change” value was found to be 2.21.

RRIRRRPPRLPRPRPRPLGEPRP: the “shrunken log2 fold change” value was determined as 0.144.

Regarding RRIRMRPPRLPRPRPRPVQWPRP, the “shrunken log2 fold change” value was determined as 0.155.

As for RRIRARPPRLPRPRPRPCETPRP, the “shrunken log2 fold change” value is 0.00546.

For RRIRVRPPRLPRPRPRPRMTPRP, the “shrunken log2 fold change” value turned out to be 0.265.

Turning to RRIRTRPPRLPRPRPRPAQYPRP, the “shrunken log2 fold change” value worked out at 0.105.

Turning to RRIRYRPPRLPRPRPRPVRGPRP, the “shrunken log2 fold change” value turned out to be 0.393.

As to RRIRDRPPRLPRPRPRPSFSPRP, the “shrunken log2 fold change” value is -0.0351.

For the sequence RRIRMRPPRLPRPRPRPKEWPRP, the “shrunken log2 fold change” value was 0.0859.

Consider RRIRNRPPRLPRPRPRPVTGPRP, for which the “shrunken log2 fold change” value was -0.362.

On to RRIRFRPPRLPRPRPRPTTSPRP, for which the “shrunken log2 fold change” value stood at 0.0366.

As for RRIRPRPPRLPRPRPRPTCQPRP, the “shrunken log2 fold change” value was -0.0775.

RRIRNRPPRLPRPRPRPDKYPRP: the “shrunken log2 fold change” value is -0.665.

In the case of RRIRRRPPRLPRPRPRPWWRPRP, the “shrunken log2 fold change” value was 0.463.

With RRIRSRPPRLPRPRPRPIKQPRP, the “shrunken log2 fold change” value is -0.13.

Consider RRIRQRPPRLPRPRPRPPLGPRP, for which the “shrunken log2 fold change” value amounted to 0.547.

For RRIRERPPRLPRPRPRPLHAPRP, the “shrunken log2 fold change” value is -0.0579.

With RRIRPRPPRLPRPRPRPRWDPRP, the “shrunken log2 fold change” value is -0.0161.

As for RRIRQRPPRLPRPRPRPPKFPRP, the “shrunken log2 fold change” value came out at 0.117.

As to RRIRMRPPRLPRPRPRPVWHPRP, the “shrunken log2 fold change” value was 0.137.

As for RRIRHRPPRLPRPRPRPGCCPRP, the “shrunken log2 fold change” value came out at 0.0396.

RRIRIRPPRLPRPRPRPHQEPRP: the “shrunken log2 fold change” value is -0.01.

Turning to RRIRMRPPRLPRPRPRPQKWPRP, the “shrunken log2 fold change” value is -0.00664.

RRIRVRPPRLPRPRPRPEMSPRP: the “shrunken log2 fold change” value came out at 0.0206.

With RRIRRRPPRLPRPRPRPQSDPRP, the “shrunken log2 fold change” value came out at 0.244.

As for RRIRPRPPRLPRPRPRPMSCPRP, the “shrunken log2 fold change” value is -0.043.

As for RRIRFRPPRLPRPRPRPGWLPRP, the “shrunken log2 fold change” value came to 0.129.

Consider RRIRCRPPRLPRPRPRPPIEPRP, for which the “shrunken log2 fold change” value is -0.0198.

As for RRIRNRPPRLPRPRPRPPHCPRP, the “shrunken log2 fold change” value amounted to 0.0234.

For RRIRMRPPRLPRPRPRPETPPRP, the “shrunken log2 fold change” value worked out at 3.09.

For RRIRPRPPRLPRPRPRPMHIPRP, the “shrunken log2 fold change” value is -0.105.

Regarding RRIRKRPPRLPRPRPRPKWMPRP, the “shrunken log2 fold change” value was -0.168.

RRIRRRPPRLPRPRPRPYDQPRP: the “shrunken log2 fold change” value was -0.0875.

For RRIRMRPPRLPRPRPRPIGVPRP, the “shrunken log2 fold change” value amounted to 0.0547.

As for RRIRERPPRLPRPRPRPPLYPRP, the “shrunken log2 fold change” value was determined as 0.127.

As to RRIRGRPPRLPRPRPRPSDAPRP, the “shrunken log2 fold change” value is 0.264.

With RRIRLRPPRLPRPRPRPAHEPRP, the “shrunken log2 fold change” value turned out to be 0.408.

With RRIRMRPPRLPRPRPRPCRLPRP, the “shrunken log2 fold change” value is 0.0956.

As to RRIRRRPPRLPRPRPRPLPMPRP, the “shrunken log2 fold change” value worked out at 0.541.

Take RRIRNRPPRLPRPRPRPLWPPRP: the “shrunken log2 fold change” value was 0.14.

RRIRWRPPRLPRPRPRPHNHPRP: the “shrunken log2 fold change” value is -0.707.

Take RRIRRRPPRLPRPRPRPDTYPRP: the “shrunken log2 fold change” value was -0.193.

Take RRIRCRPPRLPRPRPRPEFWPRP: the “shrunken log2 fold change” value was 0.163.

Regarding RRIRQRPPRLPRPRPRPCTWPRP, the “shrunken log2 fold change” value was -0.464.

Consider RRIRFRPPRLPRPRPRPRQLPRP, for which the “shrunken log2 fold change” value was -0.0618.

As to RRIRRRPPRLPRPRPRPEKTPRP, the “shrunken log2 fold change” value was found to be 0.00726.

Take RRIRERPPRLPRPRPRPSIAPRP: the “shrunken log2 fold change” value was -0.259.

As for RRIRPRPPRLPRPRPRPTAIPRP, the “shrunken log2 fold change” value amounted to 0.434.

RRIRERPPRLPRPRPRPTQNPRP: the “shrunken log2 fold change” value is 0.262.

In the case of RRIRARPPRLPRPRPRPNKNPRP, the “shrunken log2 fold change” value was 0.0222.

In the case of RRIRSRPPRLPRPRPRPQRGPRP, the “shrunken log2 fold change” value was 0.274.

On to RRIRTRPPRLPRPRPRPIVEPRP, for which the “shrunken log2 fold change” value was 0.0431.

As to RRIRKRPPRLPRPRPRPQFSPRP, the “shrunken log2 fold change” value was found to be 0.0164.

Turning to RRIRARPPRLPRPRPRPMLHPRP, the “shrunken log2 fold change” value stood at 0.206.

With RRIRSRPPRLPRPRPRPRPSPRP, the “shrunken log2 fold change” value is 0.439.

For RRIRIRPPRLPRPRPRPDDHPRP, the “shrunken log2 fold change” value stood at 0.07.

On to RRIRRRPPRLPRPRPRPSKAPRP, for which the “shrunken log2 fold change” value is -0.0721.

With RRIRLRPPRLPRPRPRPNQVPRP, the “shrunken log2 fold change” value was -0.294.

Take RRIRDRPPRLPRPRPRPIRSPRP: the “shrunken log2 fold change” value is -0.00822.

On to RRIRPRPPRLPRPRPRPCNEPRP, for which the “shrunken log2 fold change” value is -0.16.

Take RRIRNRPPRLPRPRPRPAESPRP: the “shrunken log2 fold change” value came out at 0.37.

As for RRIRWRPPRLPRPRPRPDHWPRP, the “shrunken log2 fold change” value turned out to be 0.109.

For the sequence RRIRLRPPRLPRPRPRPPKKPRP, the “shrunken log2 fold change” value is 0.265.

On to RRIRRRPPRLPRPRPRPSLCPRP, for which the “shrunken log2 fold change” value came to 1.05.

As for RRIRVRPPRLPRPRPRPKFLPRP, the “shrunken log2 fold change” value is -0.00678.

For the sequence RRIRMRPPRLPRPRPRPMQEPRP, the “shrunken log2 fold change” value was determined as 0.0303.

In the case of RRIRNRPPRLPRPRPRPICDPRP, the “shrunken log2 fold change” value was -0.119.

Regarding RRIRNRPPRLPRPRPRPLQQPRP, the “shrunken log2 fold change” value was 0.0184.

For the sequence RRIRVRPPRLPRPRPRPFEFPRP, the “shrunken log2 fold change” value was -0.284.

Consider RRIRHRPPRLPRPRPRPDHDPRP, for which the “shrunken log2 fold change” value came out at 0.0111.

Turning to RRIRARPPRLPRPRPRPKLHPRP, the “shrunken log2 fold change” value is 0.366.

RRIRVRPPRLPRPRPRPRISPRP: the “shrunken log2 fold change” value was -0.187.

As for RRIRKRPPRLPRPRPRPIEAPRP, the “shrunken log2 fold change” value is 0.0321.

With RRIRVRPPRLPRPRPRPGNEPRP, the “shrunken log2 fold change” value was -0.203.

RRIRARPPRLPRPRPRPFRKPRP: the “shrunken log2 fold change” value amounted to 0.00339.

For RRIRPRPPRLPRPRPRPPIRPRP, the “shrunken log2 fold change” value worked out at 0.41.

On to RRIRVRPPRLPRPRPRPYDLPRP, for which the “shrunken log2 fold change” value was -0.121.

As to RRIRVRPPRLPRPRPRPCNKPRP, the “shrunken log2 fold change” value was -0.311.

Turning to RRIRARPPRLPRPRPRPPNDPRP, the “shrunken log2 fold change” value was found to be 0.459.

Consider RRIRNRPPRLPRPRPRPYWGPRP, for which the “shrunken log2 fold change” value was 0.0237.

Consider RRIRIRPPRLPRPRPRPNIIPRP, for which the “shrunken log2 fold change” value was -0.719.

As for RRIRWRPPRLPRPRPRPTQYPRP, the “shrunken log2 fold change” value is 0.0537.

In the case of RRIRNRPPRLPRPRPRPAAVPRP, the “shrunken log2 fold change” value worked out at 0.158.

Turning to RRIRPRPPRLPRPRPRPKENPRP, the “shrunken log2 fold change” value is -0.102.

RRIRPRPPRLPRPRPRPQQLPRP: the “shrunken log2 fold change” value is 0.0282.

For the sequence RRIRARPPRLPRPRPRPHQSPRP, the “shrunken log2 fold change” value was 0.265.

As to RRIRDRPPRLPRPRPRPYDQPRP, the “shrunken log2 fold change” value was -0.473.

Regarding RRIRGRPPRLPRPRPRPAIQPRP, the “shrunken log2 fold change” value came out at 0.438.

With RRIRYRPPRLPRPRPRPPAMPRP, the “shrunken log2 fold change” value was -0.35.

Take RRIRARPPRLPRPRPRPMASPRP: the “shrunken log2 fold change” value was found to be 0.543.

Turning to RRIRWRPPRLPRPRPRPQDFPRP, the “shrunken log2 fold change” value amounted to 0.203.

For the sequence RRIRIRPPRLPRPRPRPTLFPRP, the “shrunken log2 fold change” value was -0.131.

As to RRIRVRPPRLPRPRPRPIERPRP, the “shrunken log2 fold change” value amounted to 0.0557.

With RRIRVRPPRLPRPRPRPKGRPRP, the “shrunken log2 fold change” value turned out to be 0.211.

For RRIRWRPPRLPRPRPRPKDIPRP, the “shrunken log2 fold change” value was -0.0886.

Turning to RRIRGRPPRLPRPRPRPFTAPRP, the “shrunken log2 fold change” value came to 0.272.

Take RRIRTRPPRLPRPRPRPVYPPRP: the “shrunken log2 fold change” value was -0.00118.

Regarding RRIRRRPPRLPRPRPRPSVCPRP, the “shrunken log2 fold change” value is 0.0243.

RRIRHRPPRLPRPRPRPGYGPRP: the “shrunken log2 fold change” value is -0.318.

As to RRIRGRPPRLPRPRPRPPIRPRP, the “shrunken log2 fold change” value worked out at 0.849.

Take RRIRIRPPRLPRPRPRPIWMPRP: the “shrunken log2 fold change” value is -0.176.

Turning to RRIRARPPRLPRPRPRPGFSPRP, the “shrunken log2 fold change” value turned out to be 0.329.

Consider RRIRMRPPRLPRPRPRPMLKPRP, for which the “shrunken log2 fold change” value was 0.197.

Turning to RRIRNRPPRLPRPRPRPFLEPRP, the “shrunken log2 fold change” value came to 0.0329.

As for RRIRGRPPRLPRPRPRPRRIPRP, the “shrunken log2 fold change” value stood at 0.451.

For the sequence RRIRFRPPRLPRPRPRPHRHPRP, the “shrunken log2 fold change” value was -0.333.

Regarding RRIRLRPPRLPRPRPRPVSTPRP, the “shrunken log2 fold change” value was determined as 0.255.

On to RRIRDRPPRLPRPRPRPAHTPRP, for which the “shrunken log2 fold change” value amounted to 0.0343.

With RRIRCRPPRLPRPRPRPWMVPRP, the “shrunken log2 fold change” value is -0.559.

For the sequence RRIRWRPPRLPRPRPRPEHDPRP, the “shrunken log2 fold change” value is -0.0282.

In the case of RRIRFRPPRLPRPRPRPEHGPRP, the “shrunken log2 fold change” value was 0.00151.

Consider RRIRKRPPRLPRPRPRPFMRPRP, for which the “shrunken log2 fold change” value came out at 0.24.
